Laboratory results published in patent US7811569.

Target: native MSP-3 antigen of Plasmodium falciparum clone 3D7 schizonts and merozoites (Plasmodium falciparum)
Assay: flow cytometry on ethanol-fixed permeabilized schizonts, FITC anti-human Fab

percent of events under the bar M1	Substance
4%	control antibody against HibCP in the IgG1 format
2%	control Fab against HibCP
